Laboratory results: patent publication US20060292634A1 (CATCHMABS B V, published 2006)

Assays:
chicken lysozyme [1] = molecular target: T1, chicken lysozyme (chicken, UniProt P00698 19-147); experiment: ELISA, lysozyme-coated well (100 µg/ml), ~50 ng iMab per well, anti-VSV-HRP; urea-purified
T1 construct: Coated on ELISA plates (100 µg/ml) or immobilized on / passed over Eupergit columns
Protocol: (§1) The microtiter plate was excessively washed with PBS (3 times), PBS+0.1% Tween-20 (3 times) and PBS (3 times).
(§2) After excessive washing using PBS (3 times), PBS+0.1% Tween-20 (3 times) and PBS (3 times), wells were incubated with 100 μl Turbo-TMB for 5 minutes. Reaction was stopped with 100 μl 2M H₂SO₄ and absorbtion was read at 450 nm using a microtiter plate reader (Biorad).

chicken lysozyme [2] = molecular target: T1, chicken lysozyme; experiment: ELISA on lysozyme, 100-fold dilution of the protein extract
Protocol: as §1, §2

chicken lysozyme [3] = molecular target: T1, chicken lysozyme; experiment: ELISA

T1 sequence (P00698 19-147 limits assumed): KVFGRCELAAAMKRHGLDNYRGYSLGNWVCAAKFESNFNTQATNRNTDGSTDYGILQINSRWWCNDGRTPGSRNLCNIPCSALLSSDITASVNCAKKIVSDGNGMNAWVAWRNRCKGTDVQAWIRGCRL

Binder | Absorbtion (450 nm) (chicken lysozyme [1]) | ELISA signal over background signal (fold) (chicken lysozyme [2]) | binding result (chicken lysozyme [3])
iMab1602 (designed binder, not shown: C-terminal linker, VSV-tag and 6xHis-tag from vector CM126) AVKPVIGSKAPNFGENGDVKTIDRASGYTIGPTCGGVFFQGPTDDSTNVATINMGGGITYYGDSVKETFDIRRDNAKSTRTESYDDNQPEGLTEVKCAADSTIYASYYECGHGLSTGGYGYDVSSRLYGYDILVGTQ | 0.357 A450 |  | 
iMab1202 (designed binder, also called iMab1202 (1EJ6); not shown: C-terminal linker, VSV-tag and 6xHis-tag from vector CM126) IVKLVMEKRGNFENGQDCKLTIRASGYTIGPACDGFFCQFPSDDSFSTEDNMGGGITVNDAMKPQFDIRRDNAKGTWTLSMDFQPEGIYEMQCAADSTIYASYYECGHGLSTGGYGYDNPVRLGGFDVDVPDV | 0.317 A450 |  | 
iMab1300 (designed binder, not shown: C-terminal linker, VSV-tag and 6xHis-tag from vector CM126) LQVDIKPSQGEISVGESKFFLCQASGYTIGPCISWFSPNGEKLNMGSSTLTIYNANIDDAGIYKCAADSTIYASYYECGHGLSTGGYGYQSEATVNVKIFQ | 0.325 A450 |  | 
iMab1302 (designed binder, not shown: C-terminal linker, VSV-tag and 6xHis-tag from vector CM126) VVKVVIKPSQNFIENGEDKKFTCRASGYTIGPKCIGWFSQNPEDDSTNVATINMGGGITYYGDSVKERFDIRRDNAKDTSTLSIDDAQPEDAGIYKCAADSTIYASYYECGHGLSTGGYGYDSEATVGVDIFVKLM | 0.345 A450 |  | 
iMab111 (designed binder, not shown: C-terminal linker, VSV-tag and 6xHis-tag from vector CM126) NVKLVCKGGNFVENDDDLKLTCRAEGYTIGPYCMGWFRQAPNDDSTNVATINMGGGITYYGDSVKERFDIRRDNASNTVTLSMDDLQPEDSAEYNCAGDSTIYASYYECGHGLSTGGYGYDSHYRCQGTDVTVSS | 0.42 A450 | ~20 fold | 
iMab115 (designed binder, Expressed in E. coli (21 kD); also called iMab without glycosylation site) NVKLVEKGGNFVENDDDLKLTCRAEGYTIGPYCMGWFRQAPNDDSTNVATINMGGGITYYGDSVKERFDIRRDQASNTVTLSMDDLQPEDSAEYNCAGDSTIYASYYECGHGLSTGGYGYDSHYRGQGTDVTVSS |  |  | binds
iMab122 (designed binder, not shown: C-terminal linker, VSV-tag and 6xHis-tag from vector CM126) NVKLVEKGGNFVENDDDLKLTCRASGRTFSSRTMGWFRQAPNDDSTNVATIRWNGGSTYYTNYGDSVKERFDIRVDQASNTVTLSMDDLQPEDSAEYNCAGTDIGDGWSGRYDYRGQGTDVTVSS | 0.271 A450 |  | 
